Test results published in PMC8134430.

Molecular target: Recombinant pseudopilin domain of Naegleria gruberi GspG1 (NgGspG1) lacking the N-terminal hydrophobic part (Naegleria gruberi)
Experiment: MST; Monolith NT.115; 10 nM protein labelled with Red-NHS dye NT-647, unlabelled protein titrated to 50 uM; 50 mM HEPES, 50 mM NaCl

Kd: 216 nM
Substance: Recombinant pseudopilin domain of Naegleria gruberi GspG1 (NgGspG1) lacking the N-terminal hydrophobic part (domain or fragment)
